According to patent US20190135932A1 (Pfizer, published 2019):

What was measured:
[1] = target: T1, cynomolgus OX40R on activated cynomolgus monkey T cells / PBMCs (cynomolgus monkey); assay: FACS saturation binding on anti-CD3 and anti-CD28 stimulated cynomolgus PBMCs, average over 14 individual monkeys
T1 construct: whole, on cells; also called monkey cells; cynomolgus PBMC's stimulated with anti-CD3 and anti-CD28
Protocol: OX40R-expressing cell lines (see below) or activated primary peripheral blood mononuclear cells (see below) were used to assess binding on both the human and cynomolgus OX40 receptors. Cells were harvested and washed (5×10⁵/tube) using wash buffer at RT°. The wash buffer consisted of PBS, 2% heat-inactivated fetal bovine serum (Hyclone, Logan, Utah) and 0.02% sodium azide (Sigma, St. Louis, Mo.). Next, 100 μl of various concentrations of antibody was added to the cells (starting at 30 ug/ml and using a 3-fold titration) diluted in wash buffer containing 0.005 mg/ml of cytocholasin B (Sigma, St. Louis, Mo.). The cells were gently rocked at RT° for 3 hours. Next, the cells were washed twice and resuspended in 0.5 ml/tube with cold wash buffer and 10,000 events were collected and analyzed using a Becton Dickinson FACSCalibur and CellQuest software (San Jose, Calif.).
Cynomolgus whole blood was obtained using heparinized vacutainer tubes (BD; Franklin Lakes, N.J.) and was diluted 1:4 in PBS. Diluted whole blood was mixed and 15 mls was carefully layered over an equal volume of Histopaque 1077 (Sigma, St Louis, Mo.). […] After a PBS wash, the PBMCs were counted and readjusted to 1×10⁶/ml in tissue culture medium (TCM). […]

[2] = target: T2, rat OX40R on activated rat T cells (rat, UniProt P15725 20-271); assay: FACS, Alexa Fluor 647 conjugated antibody on activated T cells
T2 construct: whole, on cells; also called rat cells
T2 sequence (looked up): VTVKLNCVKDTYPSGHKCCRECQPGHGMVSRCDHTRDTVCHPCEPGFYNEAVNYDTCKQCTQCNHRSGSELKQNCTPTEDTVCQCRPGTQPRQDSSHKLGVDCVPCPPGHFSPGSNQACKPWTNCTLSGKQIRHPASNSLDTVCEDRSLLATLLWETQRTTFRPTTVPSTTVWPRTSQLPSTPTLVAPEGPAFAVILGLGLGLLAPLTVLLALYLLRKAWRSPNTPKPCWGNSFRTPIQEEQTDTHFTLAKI
Protocol: (§1) Rat whole blood collected in heparinized syringes was diluted 1:3 in warm HBSS. Next, 5 mls was carefully layered over an equal volume of Lympholyte-Rat (Cedarlane Laboratories, Westbury, N.Y.). The tubes were centrifuged for 20 minutes at 1500 RPM. The PBMCs interface was collected, washed twice and the cell pellet was re-adjusted to 2×10⁶/ml in TCM. Two mls of cells were added to each well of a 24 well plate and stimulated for 24-48 hours with PHA (Remel, Lenexa, Kans.) at 10 ng/ml prior to flow cytometry staining.
(§2) Stimulated mouse, rat, rabbit, dog and cynomolgus PBMCs and the 300-19 cell line expressing the cynomolgus OX40 receptor were used to test for human OX40 antibody species cross-reactivity. Human OX40 expressing activated T lymphocytes and OX40 transduced 300-19 cells were used as positive controls. Cells (5.0×10⁵/tube) were washed once in cold wash buffer (PBS, 2% FBS and 0.02% sodium azide) and 100 μl/tube of Alexa Fluor 647 conjugated control or OX40 reactive antibodies at 5 ug/ml was added to each tube. The antibodies were labeled using an Alex Fluor 647 protein labeling kit as described by the manufacturer (Molecular Probes, Eugene, Oreg.). […] Antibody staining was measured and analyzed using a Becton Dickinson FACSCalibur and CellQuest software (San Jose, Calif.).

[3] = target: T3, mouse OX40R on activated mouse T cells (mouse, UniProt P47741 20-272); assay: as above
T3 construct: whole, on cells; also called mouse cells; murine OX40R
T3 sequence (looked up): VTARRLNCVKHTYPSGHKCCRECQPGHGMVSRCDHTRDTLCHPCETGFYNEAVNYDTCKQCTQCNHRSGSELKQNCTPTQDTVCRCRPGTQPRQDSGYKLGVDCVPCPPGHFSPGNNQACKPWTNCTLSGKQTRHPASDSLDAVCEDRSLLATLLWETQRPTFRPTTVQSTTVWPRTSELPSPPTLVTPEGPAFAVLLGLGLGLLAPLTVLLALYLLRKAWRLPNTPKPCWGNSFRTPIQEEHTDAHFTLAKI
Protocol: as §1, §2

EC50 [1]: 0.354 µg/mL | binding result [2]: no binding (tested: 5 ug/ml) | binding result [3]: no binding (tested: 5 ug/ml)
B1: human monoclonal antibody 11D4 (antibody, V domains shown)
VH: EVQLVESGGGLVQPGGSLRLSCAASGFTFSSYSMNWVRQAPGKGLEWVSYISSSSSTIDYADSVKGRFTISRDNAKNSLYLQMNSLRDEDTAVYYCARESGWYLFDYWGQGTLVTVSS
VL: DIQMTQSPSSLSASVGDRVTITCRASQGISSWLAWYQQKPEKAPKSLIYAASSLQSGVPSRFSGSGSGTDFTLTISSLQPEDFATYYCQQYNSYPPTFGGGTKVEIKR
notes: IgG2 heavy chain, kappa light chain; allotypes G2(n-) and Km3; Alexa Fluor 647 conjugate was used in the species cross-reactivity FACS
